Data taken from publication PMC4070910, “Cathepsin S Signals via PAR2 and Generates a Novel Tethered Ligand Receptor Agonist” (PLoS ONE, 2014).
“Also recorded” adds a separate entry of the source.

Legend:
[1] = test system: luciferase-PAR2 (native PAR2); experiment: Gaussia luciferase release, luciferase-PAR2; type: cell-based, human; conditions: cathepsin S 2 µM, 10 minutes, room temperature, triplicate
From the text: (§1) Gaussia luciferase cDNA was cloned, without its termination codon, into pcDNA3.1(−) as an Xho I-EcoR I fragment. Human PAR2 cDNA and its mutants, M1, M2 and M3, were generated using PCR primers designed to start after the signal sequence and end with a termination codon: […] and […] . The PCR amplified cDNAs were cloned into EcoR I and Hind III sites C-terminal to Gaussia luciferase cDNA. The resulting plasmids were called pGLPAR2, pGLPAR2M1, pGLPAR2M2 and pGLPAR2M3.
The plasmid DNAs pGLPAR2, pGLPAR2M1, pGLPAR2M2 and pGLPAR2M3 (10 µg of each) were transfected into 2×10^6 HeLa cells as described above and plated into 10 cm dishes. HeLa cells transfected with salmon sperm were used as controls. Forty-eight hours after transfection, the cells were washed twice with PBS, scraped and pelleted. Cells were scraped in order to eliminate the use of trypsin, which could activate PARs, and allowed for the luminescence assay to be performed in a small volume. Pelleted cells were resuspended into 200 µl PBS, and 100 µl of each was incubated with cathepsin S at a final concentration 2 µM for 10 minutes at room temperature. Untreated cells were processed by the same methods for a negative control. […] Luminescence assays were performed in triplicate on 50 µl of the supernatants according to the instructions of the manufacturer (New England Biolabs, Ipswich, MA).

[2] = test system: luciferase-PAR2M3 (leucine38 and glycine40 to alanines); experiment: Gaussia luciferase release, luciferase-PAR2M3; type: cell-based, human; conditions: cathepsin S 2 µM, 10 minutes, room temperature, triplicate
From the text: as §1
(§2) The QuickChange site-directed mutagenesis procedure (Agilent Technologies, Santa Clara, CA) was used to generate PAR2 N-terminal mutants. PAR2M1, with a single amino acid change, was created by substituting the leucine^38 codon, CTT, with alanine, GCT, using the primers: PAR2M1F, […], and PAR2M1R, […]. […]
(§3) The plasmid DNAs pGLPAR2, pGLPAR2M1, pGLPAR2M2 and pGLPAR2M3 (10 µg of each) were transfected into 2×10^6 HeLa cells as described above and plated into 10 cm dishes. […] Cells were scraped in order to eliminate the use of trypsin, which could activate PARs, and allowed for the luminescence assay to be performed in a small volume. […] Luminescence assays were performed in triplicate on 50 µl of the supernatants according to the instructions of the manufacturer (New England Biolabs, Ipswich, MA).

[3] = test system: luciferase-PAR2M2 (glycine40 to alanine); experiment: Gaussia luciferase release, luciferase-PAR2M2; type: cell-based, human; conditions: cathepsin S 2 µM, 10 minutes, room temperature, triplicate
From the text: as §1, §2, §3

[4] = test system: human PAR2; experiment: IP1 (IP-One HTRF) assay in PAR2-transfected HeLa cells; type: cell-based; conditions: 1 hour, 37°C, KVDGTS 100 µM, SLIGRL 10 µM, cathepsin S 1 µM
Method: (§4) To determine the effect of PAR2 activation on Gq stimulation, we measured IP1, a downstream metabolite of IP3, using the IP-One HTRF assay from Cis Bio, Medford, MA. HeLa cells were transfected with salmon sperm DNA or PAR2 cDNA as described above, plated in 10 cm culture dishes and incubated at 37°C with 5% CO2. After 24 hours, the cells were trypsinized, counted, plated into 96-well plates at 80,000 cells/well and incubated for another 24 hours. The medium was replaced with a stimulation buffer containing LiCl, per the instructions of the manufacturer. Ligands, including cathepsin S (1 µM), KVDGTS (100 µM) and SLIGRL (10 µM) were added to wells and incubated at 37°C for 1 hour and IP1 levels determined. This assay was performed on multiple wells containing each ligand on three occasions. Error bars represent SEM.

[5] = test system: PAR2; conditions: proteases expressed in the skin; cited from earlier work
From the text: PAR2 signaling has been implicated in the development of inflammatory and bowel diseases, asthma, itch and pain. The receptor is expressed on many types of cells including keratinocytes, sensory neurons, fibroblasts, endothelial cells, and inflammatory cells, [3]. Consistent with this broad expression, PAR2 is involved in numerous physiologic and pathophysiologic processes in response to both endogenous and exogenous proteases.

[6] = test system: PAR2M2 (glycine40 to alanine); experiment: Calcium imaging in HeLa cells transfected with PAR2M2; type: cell-based, human; conditions: cathepsin S 2 µM, KVDGTS 100 µM
Method: (§5) Human PAR2 cDNA was cloned as an Xho I-Hind III fragment (1206 bp) into pcDNA3.1(−). 10 µg of DNA were diluted into 0.5 ml of DMEM and mixed with 0.5 ml of DMEM containing 10 µl of Lipofectamine 2000 transfection reagent and incubated at room temperature for 20 minutes. HeLa cells were grown to confluence, trypsinized and 1×10^6 cells were pelleted in a 15 ml tube by centrifugation at 1000 rpm for 5 minutes. The DMEM-Lipofectamine 2000-DNA mixture (1 ml) was added to the cell pellet, resuspended gently and incubated at room temperature for 20 minutes. Four ml of complete DMEM with 10% FBS were added to the tube, mixed by inverting the tube several times, plated into a 96-well glass bottom plate at 20,000 cells/well, and placed in a 37°C CO2 incubator. HeLa cells transfected with vector alone or salmon sperm DNA (shown in the figures) were plated as a control. The medium was aspirated two days after transfection. Fura-2 was used as a ratiometric calcium-sensitive indicator as follows. […]
(§6) Imaging was performed using a Zeiss Axiovert 200 M microscope platform equipped with a flipping filter wheel for ratiometric imaging. […] The software later analyzed all images taken during each excitation period. Typically, ratiometric changes were measured in 10–20 cells in each image. An average of the fluorescence of the cells in each image was calculated and plotted against time in seconds. […]

[7] = test system: PAR2M1 (leucine38 to alanine); experiment: Calcium imaging in HeLa cells transfected with PAR2M1; type: cell-based, human; conditions: cathepsin S 2 µM, KVDGTS 100 µM
Method: as §5, §6

[8] = test system: salmon sperm transfected HeLa cells; experiment: IP1 (IP-One HTRF) assay in salmon sperm DNA-transfected HeLa cells; type: cell-based; conditions: cathepsin S 1 µM, 1 hour, 37°C
Method: as §4

[9] = test system: luciferase-PAR2M1 (leucine38 to alanine); experiment: Gaussia luciferase release, luciferase-PAR2M1; type: cell-based, human; conditions: cathepsin S 2 µM, 10 minutes, room temperature, triplicate
From the text: as §1, §2, §3

B1: cathepsin S: Recombinant human cathepsin S, cysteine protease, expressed in E.coli, refolded and activated (protein, UniProt P25774 115-331, looked up)
Cathepsin S: LPDSVDWREKGCVTEVKYQGSCGACWAFSAVGALEAQLKLKTGKLVSLSAQNLVDCSTEKYGNKGCNGGFMTTAFQYIIDNKGIDSDASYPYKAMDQKCQYDSKYRAATCSKYTELPYGREDVLKEAVANKGPVSVGVDARHPSFFLYRSGVYYEPSCTQNVNHGVLVVGYGDLNGKEYWLVKNSWGHNFGEEGYIRMARNKGNHCGIASFPSYPEI
receptor cleavage, luciferase luminescence (in words) [1]: cleaved the native and PAR2M1 receptors
receptor cleavage, luciferase luminescence (in words) [2]: did not cleave PAR2M2 or PAR2M3
receptor cleavage, luciferase luminescence (in words) [3]: did not cleave PAR2M2 or PAR2M3
IP1 level ([4]; KVDGTS and SLIGRL after subtracting baseline values, cathepsin S 'in this particular experiment'): 122 nM
IP1 generation (in words) ([4]; three occasions): consistently generated higher levels of IP1 than either SLIGRL or KVDGTS
PAR2 activation (in words) [5]: activated
calcium response on PAR2M2 (in words) [6]: did not induce calcium responses; also recorded: not PAR2M2 or PAR2M3
calcium response on PAR2M1 (in words) [7]: induced normal calcium responses; also recorded: able to stimulate native PAR2 and PAR2M1
IP1 level in salmon sperm transfected cells (in words) [8]: no effect above baseline IP1 levels
receptor cleavage, luciferase luminescence (in words) [9]: cleaved the native and PAR2M1 receptors
